Target: T1, 人胸苷激酶1(TK1) (human) (UniProt P04183)
T1 sequence (looked up): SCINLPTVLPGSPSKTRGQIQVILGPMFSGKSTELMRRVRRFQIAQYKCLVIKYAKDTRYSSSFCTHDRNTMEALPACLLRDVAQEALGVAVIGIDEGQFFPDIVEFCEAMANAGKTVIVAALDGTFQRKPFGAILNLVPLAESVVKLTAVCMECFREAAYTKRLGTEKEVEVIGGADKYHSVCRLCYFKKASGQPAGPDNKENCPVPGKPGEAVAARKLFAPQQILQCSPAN
Experiment: cell-based or functional assay

肿瘤细胞凋亡频率 (Annexin V-FITC/PI), KATO-Ⅲ, 10μg/ml antibody, 72 h: 3.49 倍
肿瘤细胞凋亡频率 (Annexin V-FITC/PI), KATO-Ⅲ(STEM), 10μg/ml antibody, 72 h: 2.59 倍
肿瘤细胞凋亡频率 (Annexin V-FITC/PI), NCI-N87, 10μg/ml antibody, 72 h: 1.46 倍
肿瘤细胞凋亡频率 (Annexin V-FITC/PI), NCI-N87(STEM), 10μg/ml antibody, 72 h: 2.21 倍
肿瘤细胞生存活力 (CCK-8), KATO-Ⅲ, 100μg/ml antibody, 72 h: 56.3%
肿瘤细胞生存活力 (CCK-8), KATO-Ⅲ(STEM), 100μg/ml antibody, 72 h: 66.6%
肿瘤细胞生存活力 (CCK-8), NCI-N87, 100μg/mL antibody, 72 h: 85%
肿瘤细胞生存活力 (CCK-8), NCI-N87(STEM), 100μg/mL antibody, 72 h: 66.6%
B1: 鼠抗人胸苷激酶1-IgG单克隆抗体(SSTK小鼠杂交瘤细胞株057M) (antibody, V domains shown)
VH: EVKLVESGGGLAQPGGSLRLSCATSGFTFSDYYMNWVRQPPGKAFEWLGFIRNKEYGNTAEYNPSLKGRFTISRDDSQSILYLQMNTLRVEDSAIYYCARDGAFDYWGQGTSLTVSS
VL: DIVMTQSPASLAVSLGQRATISCRASKSVSTSGYSYMHWNQQKPGQPPKLLIYLASNLESGVPARFSGSGSGTDFTLNIHPVEEEDAATYYCQESREFPTVGGGTNLEIK

Reference: patent CN113773389A
